Assay results as given in patent publication US20250042994A1 (HAINAN SIMCERE ZAIMING PHARMACEUTICAL, published 2025).

T1: human CD19 on Raji cells (human, UniProt P15391 20-556)
T1 construct: whole, on cells
T1 sequence (looked up): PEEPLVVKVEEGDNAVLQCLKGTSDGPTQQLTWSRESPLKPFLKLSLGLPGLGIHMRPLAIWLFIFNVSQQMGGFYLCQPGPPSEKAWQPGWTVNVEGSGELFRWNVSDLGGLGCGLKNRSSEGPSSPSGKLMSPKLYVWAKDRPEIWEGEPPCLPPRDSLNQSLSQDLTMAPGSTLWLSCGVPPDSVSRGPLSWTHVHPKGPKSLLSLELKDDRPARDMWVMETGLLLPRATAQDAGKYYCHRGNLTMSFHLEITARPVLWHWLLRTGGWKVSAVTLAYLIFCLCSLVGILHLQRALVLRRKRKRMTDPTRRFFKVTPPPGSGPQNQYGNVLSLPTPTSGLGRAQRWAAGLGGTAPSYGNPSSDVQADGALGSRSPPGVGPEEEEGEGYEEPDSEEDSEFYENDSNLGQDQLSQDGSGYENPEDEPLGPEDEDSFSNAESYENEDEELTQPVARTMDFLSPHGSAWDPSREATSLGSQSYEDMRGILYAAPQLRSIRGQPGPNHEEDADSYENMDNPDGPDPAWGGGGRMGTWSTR

T2: human CD19 on CHO-K1-human CD19 cells (human, UniProt P15391 20-556)
T2 construct: whole, on cells; also called CHO-K1-human CD19-2C8
T2 sequence (looked up): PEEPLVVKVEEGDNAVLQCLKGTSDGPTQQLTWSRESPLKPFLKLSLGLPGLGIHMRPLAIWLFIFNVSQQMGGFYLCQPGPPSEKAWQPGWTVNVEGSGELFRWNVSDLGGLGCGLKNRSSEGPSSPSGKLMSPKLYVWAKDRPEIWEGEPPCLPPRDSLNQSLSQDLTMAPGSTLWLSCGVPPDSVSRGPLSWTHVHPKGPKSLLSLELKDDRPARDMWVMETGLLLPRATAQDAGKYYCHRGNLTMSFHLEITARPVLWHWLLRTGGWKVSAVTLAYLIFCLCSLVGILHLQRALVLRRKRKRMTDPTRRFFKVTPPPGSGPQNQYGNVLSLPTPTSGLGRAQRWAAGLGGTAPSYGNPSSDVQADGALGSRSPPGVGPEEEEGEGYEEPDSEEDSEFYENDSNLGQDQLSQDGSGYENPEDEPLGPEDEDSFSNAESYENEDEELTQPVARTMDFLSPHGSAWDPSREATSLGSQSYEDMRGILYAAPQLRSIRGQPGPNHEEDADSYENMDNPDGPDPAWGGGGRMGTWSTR

T3: cynomolgus monkey CD19 on peripheral blood B cells (cynomolgus monkey (Macaca fascicularis), UniProt A0A2K5W8L9 20-557)
T3 construct: whole, on cells; also called cynomolgus monkey B cells
T3 sequence: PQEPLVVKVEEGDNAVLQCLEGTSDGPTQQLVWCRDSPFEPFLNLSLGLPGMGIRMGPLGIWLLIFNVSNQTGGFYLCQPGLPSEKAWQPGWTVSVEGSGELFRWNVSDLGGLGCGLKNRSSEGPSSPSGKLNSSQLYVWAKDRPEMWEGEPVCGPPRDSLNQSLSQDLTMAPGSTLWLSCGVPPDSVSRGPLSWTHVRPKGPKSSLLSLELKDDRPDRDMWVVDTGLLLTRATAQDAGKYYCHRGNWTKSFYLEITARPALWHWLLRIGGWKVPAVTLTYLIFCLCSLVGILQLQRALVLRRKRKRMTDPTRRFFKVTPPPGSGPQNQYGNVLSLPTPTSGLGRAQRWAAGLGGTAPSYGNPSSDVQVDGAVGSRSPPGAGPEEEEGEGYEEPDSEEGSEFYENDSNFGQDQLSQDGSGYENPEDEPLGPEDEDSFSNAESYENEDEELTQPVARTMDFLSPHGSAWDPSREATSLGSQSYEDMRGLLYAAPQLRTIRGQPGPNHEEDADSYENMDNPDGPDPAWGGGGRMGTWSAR


Columns and labels:
human CD19 on Raji cells = biological target: T1, human CD19 on Raji cells; assay: FACS on Raji cells
[1] = biological target: T2, human CD19 on CHO-K1-human CD19 cells; assay: FACS on CHO-K1-human CD19 cells
[2] = biological target: T4, monkey CD19 on HEK293T-monkey CD19 cells (monkey); assay: FACS on HEK293T-monkey CD19 cells
T4 construct: whole, on cells
In short: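 Cells blocked in PBS + 2% (w/w) BSA at 2×10⁶ cells/ml, then incubated with test antibody on ice for 2 h. After washes, binding read by flow cytometry as mean fluorescence intensity (MFI). EC50 from fitted MFI curves. Parental HEK293T cells run by the same method.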

[3] = biological target: T3, cynomolgus monkey CD19 on peripheral …; assay: FACS, cynomolgus PBMC, CD20+ B cells
Experimental: The monkey peripheral blood mononuclear cells were extracted from fresh cynomolgus monkey peripheral blood (purchased from Shanghai Medicilon Inc.) according to the instructions of Ficoll-Paque Plus (purchased from GE Healthcae, catalog number: 171440-02). After the cell suspension was centrifuged, the cells were resuspended in PBS containing 1% BSA, and then the cells were counted. […] The mixture was incubated for 1 h at room temperature. After washing the cells three times, APC-labeled secondary antibody anti-human IgG Fc (catalog number: 409306, purchased from Biolegend) was added. After incubation at room temperature in the dark for 30 minutes, the cells were washed 5 times, gently resuspended with PBS containing 1% BSA, and detected and analyzed by FACS (FACS Canto™, purchased from BD Company), in which CD20 was used as a marker of B cells to gate the CD20-positive B cell population, the proportion of the chimeric antibody-labeled positive cells was analyzed, and the proportion of the chimeric antibody positive cell population to B cell population was calculated after treatments with the chimeric antibodies at the concentrations of 100 nM, 10 nM and 1 nM, respectively.

Row | EC50 (human CD19 on Raji cells) | Maximum mean fluorescence intensity (human CD19 on Raji cells) | EC50 [1] | Maximum mean fluorescence intensity [1] | Maximum mean fluorescence intensity [2] | Proportion of chimeric antibody positive cells to B cells (%) at 1 nM [3] | Proportion of chimeric antibody positive cells to B cells (%) at 10 nM [3] | Proportion of chimeric antibody positive cells to B cells (%) at 100 nM [3] | EC50 [2] | Binder
1 | 0.56 nM | 26000 | 0.08 nM | 14800 | 662 | 2% | 2% | 3% |  | F4.4.6 (antibody, human IgG1, V domains shown, human-murine chimeric antibody, human IgG1) VH: QVQLQQSGAELARPGASVKLSCKASGYTFTSYWMQWVKQRPGQGLEWIGAIYPGDGDSRYTQKFKGKATLTADKSSSTAYMQLSSLASEDSAVYYCARSTTTVLGNNFEYWGQGTTLTVSS VL: QIVLTQSPAIMSALPGEKVTMTCSASSSVSSMHWYQQKSGTSPKRWIYDTSKLASGVPARFSGSGSGTSYSLTISSMEAEDAATYYCQQWSSNPWTFGGGTKLEIK
2 | 0.68 nM | 31300 | 1.27 nM | 59600 | 153000 | 7% | 16% | 38% | 3.44 nM | F3.81.2 (antibody, human IgG1, V domains shown, human-murine chimeric antibody, human IgG1) VH: QVQLQQPGAELVMPGASVKLSCKASAYTFTNYWMHWVKQRPGHGLEWIGEIDPSDSYTDYNQNFKAKATLTVDKSSSTAYMQLSSLTSEDSAVYYCARLMGRYFDVWGTGTTVTVSS VL: DIVMTQSHKFMSTSVGDRVSITCKASQDVSAAVAWYQQKPGQSPKLLINSASYRYTGVPDRFTGSGSGTDFTFTISSVQAEDLAVYYCQQHYSTPLTFGAGTKLELR
3 | 1.18 nM | 30300 | 2.47 nM | 56700 | 175000 | 16% | 27% | 49% | 5.57 nM | F3.126.15 (antibody, human IgG1, V domains shown, human-murine chimeric antibody, human IgG1) VH: QVQLQQPGAELVMPGASVKLSCKASGYTFTSYWMHWVKQRPGQGLEWIGEIDPSDSYTTYNQNFKGKATLTVDISTSTAYIQLSNLTSEDSAVYYCARLTGNYIHYWGQGTTLTVSS VL: DIVMTQSHKFMSTSVGDRVSITCKASQDVSPAVAWYQQRPGQCPKLLIFSSSYRSTGVPDRFTGSGSGTDFTFTISSVQAEDLAVYYCQQHYSLPLTFGAGTKLELK
4 | 3.34 nM | 28700 | 2.32 nM | 50400 | 210000 | 40% | 90% | 99% | 1.56 nM | F3.114.12 (antibody, human IgG1, V domains shown, human-murine chimeric antibody, human IgG1) VH: DVQLQESGPGLVKPSQSLSLTCSVTGYSITSGYDWNWIRQFPGNKLEWMGYISYDGKNNYNPSLRNRISITRDTSKNQFFLKLNSVTTEDTATYYCARRDLRGYFDVWGTGTTVTVSS VL: DIVLTQSPATLSVTPGDRVSLSCRASQSISNYLHWYQQKSHESPRLLIKYASLSISGIPSRFSGSGSGTDFTLSINSVETEDFGVYFCQQSNSWPLTFGAGTKLELK
5 | 1.75 nM | 29700 | 1.34 nM | 52200 | 198000 | 58% | 97% | 99% | 1.12 nM | F3.83.9 (antibody, human IgG1, V domains shown, human-murine chimeric antibody, human IgG1) VH: DVQLQESGPGLVKPSQSLSLTCSVTGYSITSGYYWNWIRQFPGNKLEWMGYISYDGGNNYNPSLKNRISITRDTSKNQFFLKLNSVTTEDTATYFCAREDYSNWYFDVWGTGTTVTVSS VL: DIVLTQSPASLAVSLGQRATISCRASQSVSKSSYSYMHWYQQKPGQSPKLLIKYASILKSGVPARFSGSGSGTDFTLNIHPVEEEDTATYYCQHSWEIPWTFGGGTKLEIK
6 | 0.96 nM | 28800 | 0.39 nM | 34100 | 176 | 1% | 1% | 6% |  | F3.113.16 (antibody, human IgG1, V domains shown, human-murine chimeric antibody, human IgG1) VH: QVQLQQPGAELVKPGASVKLSCKASGYTFTNYWMQWVKQRPGQGLEWIGEIDPSDSYINYNQKFKGKATLTADTSSSTAYMQLSSLTYEDSAVYYCARPVTVPWYFDVWGTGTTVTVSS VL: EIVLTQSPTTMAASPGEKITITCSATSSISSNYLHWYQQKPGFSPKLLIYRTSNLASGVPARFSGSGSGTSYSLTIGTMEAEDVATYYCQQGSAIPRIFTFGSGTKLEIK
7 | 0.31 nM | 32900 | 0.3 nM | 53700 | 80 | 1% | 2% | 2% |  | F3.121.4 (antibody, human IgG1, V domains shown, human-murine chimeric antibody, human IgG1) VH: QVQLQQPGAELVVPGTSVKLSCKASGYTFTNYWMHWVKQRPGQGLEWIGEIDPSDNYANYNQEFQGKATLTVDKSSSTAYMQLSSLTSDDSAVYYCARHDGYFGALDYWGQGTSVTVSS VL: EIVLTQSPTTMAASPGEKITITCSASSSISSNYLHWYQQKPGFSPKFLIYRTSNLASGVPARFSGSGSGTSYSLTIGTMEAEDVATYYCQQASSIPRMFTFGSGTKLEIK
8 | 0.93 nM | 34400 | 0.82 nM | 63100 | 138000 | 1% | 1% | 7% | 2.47 nM | F3.133.14 (antibody, human IgG1, V domains shown, human-murine chimeric antibody, human IgG1) VH: QVQLQQPGAELVMPGASVKLSCKASGYTFTNYWMHWVKQRPGQGLEWIGEIDPSDYYANYNQKFKGKATLTVDKSSSTAYMQLSSLTSEDSAVYYCARSHYYANSYNYWGQGTTLTVSS VL: EIELTQSPTTMAASPGEKITITCSASSSISSDYLHWYQQKPGFSPKLLIYRTSNLASGLPARFSGSGSGTSYSLTIGTMEAEDVATYYCQQGSSVPRMLTFGAGTKLELK
9 | 0.44 nM | 29900 | 0.57 nM | 3980 | 148 | 1% | 1% | 1% |  | F3.109.1 (antibody, human IgG1, V domains shown, human-murine chimeric antibody, human IgG1) VH: EVQLQQSGAELVRPGSSVKMSCKTSGYTFTSYGINWVKQRPGQGLEWIGYIYIGNDYTEFNEKFKGKATLTSDTSSSTAYMQLSSLTSEDSAIYFCARFYSNSDPMDYWGHGTSVTVSS VL: not shown
